# PMC6322289 (2019)
# B1: pro-hevein (natural protein)
# chain: EQCGRQAGGKLCPNNLCCSQWGWCGSTDEYCSPDHNCQSNCKDSGEGVGGGSASNVLATYHLYNSQDHGWDLNAASAYCSTWDANKPYSWRSKYGWTAFCGPVGAHGQSSCGKCLSVTNTGTGAKTTVRIVDQCSNGGLDLDVNVFRQLDTDGKGYERGHITVNYQFVDCGDSFNPLFSVMKSSVIN
# Target: β-1,3-glucanase (Hevea brasiliensis (endogenous in latex …, UniProt P52407 37-356))
# Test: SPR
# Sequence of β-1,3-glucanase (Hevea brasiliensis (P52407 37-356): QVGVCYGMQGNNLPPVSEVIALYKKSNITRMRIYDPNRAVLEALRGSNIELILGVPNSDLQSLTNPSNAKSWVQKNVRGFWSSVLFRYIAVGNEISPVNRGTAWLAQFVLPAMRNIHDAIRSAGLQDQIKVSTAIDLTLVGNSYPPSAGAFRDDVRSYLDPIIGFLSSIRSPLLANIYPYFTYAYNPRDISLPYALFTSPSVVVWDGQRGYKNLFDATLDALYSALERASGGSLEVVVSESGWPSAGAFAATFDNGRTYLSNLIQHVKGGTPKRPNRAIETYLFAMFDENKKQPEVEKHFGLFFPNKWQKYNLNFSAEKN
row,Binder,koff
1,B1,0.0794 s⁻¹
2,EQCGRQAGGKLCPNNLCCSQWGWCGSTDEYCSPDHNCQSNCKD (natural protein) [hevein],0.013 s⁻¹
